The results in this text go back to PMC10920880, “RNA compaction and iterative scanning for small RNA targets by the Hfq chaperone”.

For data set [1], the target named is T1, Hfq (Escherichia coli K12, UniProt P0A6X3 1-102). Nature of the data set: smFRET; 5 nM sRNA (N13)-Hfq; rates 0.05 s-1 (49%) and 0.01 s-1; lifetime >~112 s; smFRET: 10 mM Tris-HCl pH 7.5, 50 mM NaCl, 50 mM KCl, 4 mM Trolox, 0.01% Nikkol, 0.8% glucose, RNasin, oxygen scavenger; EMSA: 1x TNK, 5% glycerol, 15 min RT, native 8% PAGE 1x TBE 4 C. Conditions: protein: recombinant; tags: none (untagged); chain copies: 6; label: tether 5' biotin, 3' Cy5; RNA 3' extension paired to DNA tether; 5' hairpin. (A gel shift assay detects complexes by their altered migration in electrophoresis.)

The target in data set [2] is T1, Hfq. The data set can be described thus: smFRET; sRNA (N13)-Hfq; smFRET: 10 mM Tris-HCl pH 7.5, 50 mM NaCl, 50 mM KCl, 4 mM Trolox, 0.01% Nikkol, 0.8% glucose, RNasin, oxygen scavenger; EMSA: 1x TNK, 5% glycerol, 15 min RT, native 8% PAGE 1x TBE 4 C. Conditions: protein: recombinant; tags: none (untagged); chain copies: 6; label: tether 5' biotin, 3' Cy5; RNA 3' extension paired to DNA tether; 5' hairpin.

The target in data set [3] is T1, Hfq. Nature of the data set: smFRET; sRNA (N13)-Hfq; lifetime similar to (AAC)4; smFRET: 10 mM Tris-HCl pH 7.5, 50 mM NaCl, 50 mM KCl, 4 mM Trolox, 0.01% Nikkol, 0.8% glucose, RNasin, oxygen scavenger; EMSA: 1x TNK, 5% glycerol, 15 min RT, native 8% PAGE 1x TBE 4 C. To be noted: protein: recombinant; tags: none (untagged); chain copies: 6; label: tether 5' biotin, 3' Cy5; RNA 3' extension paired to DNA tether; 5' hairpin.

The target in data set [4] is T1, Hfq. The data set can be described thus: smFRET; sRNA (N13)-Hfq; prefers S6 site; smFRET: 10 mM Tris-HCl pH 7.5, 50 mM NaCl, 50 mM KCl, 4 mM Trolox, 0.01% Nikkol, 0.8% glucose, RNasin, oxygen scavenger; EMSA: 1x TNK, 5% glycerol, 15 min RT, native 8% PAGE 1x TBE 4 C. Conditions: protein: recombinant; tags: none (untagged); chain copies: 6; label: tether 5' biotin, 3' Cy5; RNA 3' extension paired to DNA tether; 5' hairpin.

In data set [5] the target is T1, Hfq. The data set can be described thus: smFRET; sRNA (N13)-Hfq; 23% dynamic; smFRET: 10 mM Tris-HCl pH 7.5, 50 mM NaCl, 50 mM KCl, 4 mM Trolox, 0.01% Nikkol, 0.8% glucose, RNasin, oxygen scavenger; EMSA: 1x TNK, 5% glycerol, 15 min RT, native 8% PAGE 1x TBE 4 C. Conditions: protein: recombinant; tags: none (untagged); chain copies: 6; label: tether 5' biotin, 3' Cy5; RNA 3' extension paired to DNA tether; 5' hairpin.

For data set [6], the target named is T1, Hfq. The data set can be described thus: smFRET; sRNA (N13)-Hfq; 39% dynamic; smFRET: 10 mM Tris-HCl pH 7.5, 50 mM NaCl, 50 mM KCl, 4 mM Trolox, 0.01% Nikkol, 0.8% glucose, RNasin, oxygen scavenger; EMSA: 1x TNK, 5% glycerol, 15 min RT, native 8% PAGE 1x TBE 4 C. To be noted: protein: recombinant; tags: none (untagged); chain copies: 6; label: tether 5' biotin, 3' Cy5; RNA 3' extension paired to DNA tether; 5' hairpin.

The target of data set [7] is T1, Hfq. The data set can be described thus: smFRET; sRNA (N13)-Hfq; 57% dynamic; smFRET: 10 mM Tris-HCl pH 7.5, 50 mM NaCl, 50 mM KCl, 4 mM Trolox, 0.01% Nikkol, 0.8% glucose, RNasin, oxygen scavenger; EMSA: 1x TNK, 5% glycerol, 15 min RT, native 8% PAGE 1x TBE 4 C. To be noted: protein: recombinant; tags: none (untagged); chain copies: 6; label: tether 5' biotin, 3' Cy5; RNA 3' extension paired to DNA tether; 5' hairpin; spacer stem-loop.

Residue numbers refer to the chain shown, from its start.

B1: (AAC)4-N0-S6 mRNA on DNA tether (mixed)
RNA: GGACUCUAUCGAGUCCAACAACAACAACGACCUCGCGCCCAGGACGACACACUUUGGACAGGACACACAGGACACAGG
DNA: CCTGTGTCCTGTGTGTCCTGTCCAAAGTGTGTCGTCC
Turning to B1, the binding result with Hfq [1] is given as “binds”.

B2: (AAC)4-N35-S6 mRNA on DNA tether (mixed)
RNA: GGACUCUAUCGAGUCCAACAACAACAACUCUACCAUCACCUAAACUUUACUCUACCAUCACCAGACCUCGCGCCCAGGACGACACACUUUGGACAGGACACACAGGACACAGG
DNA: B1 DNA
As to B2, the binding result with Hfq [2] was “binds”.

B3: (AAC)6-N35-S6 mRNA on DNA tether (mixed)
RNA: GGACUCUAUCGAGUCCAACAACAACAACAACAACCCCUGCAUCACCUAAACUUUACUCUACCAUCACCAGACCUCGCGCCCAGGACGACACACUUUGGACAGGACACACAGGACACAGG
DNA: B1 DNA
On to B3, for which the binding result with Hfq [3] is on record as “binds”.

B4: (AAC)4-S4-N13-S6 tandem mRNA on DNA tether (mixed)
RNA: GGACUCUAUCGAGUCCAACAACAACAACACUCCUCUCUACCAUCACCCGACCUCGCGCCCAGGACGACACACUUUGGACAGGACACACAGGACACAGG
DNA: B1 DNA
As for B4, in the data set with Hfq [4], the binding result is recorded as “binds”.

B5: (AAC)4-S6-N15-S4 tandem mRNA on DNA tether (mixed)
RNA: B4 RNA with A29C, C30G, U31A, C48A, G49C, A50U
DNA: B1 DNA
For B5, the binding result in the data set with Hfq [4] is “binds”.

B6: (AAC)4-S6-N35-S6 tandem mRNA on DNA tether (mixed)
RNA: GGACUCUAUCGAGUCCAACAACAACAACAGACCUCUCUACCAUCACCUAAACUUUACUCUACCAUCACCAGACCUCGCGCCCAGGACGACACACUUUGGACAGGACACACAGGACACAGG
DNA: B1 DNA
For the molecule B6, the binding result in the data set with Hfq [5] is recorded as “binds”.

B7: (AAC)4-N15-S6 mRNA on DNA tether (mixed)
RNA: GGACUCUAUCGAGUCCAACAACAACAACUCUACCAUCACCUAAGACCUCGCGCCCAGGACGACACACUUUGGACAGGACACACAGGACACAGG
DNA: B1 DNA
Regarding B7, the binding result with Hfq [2] is “binds”.

B8: (AAC)4-S6-N13-S6 tandem mRNA on DNA tether (mixed)
RNA: B4 RNA with C30G, U31A, C48A
DNA: B1 DNA
Regarding B8, the binding result with Hfq [6] is listed as “binds”.

B9: (AAC)4-S6-N13-S6_SL tandem mRNA on DNA tether (mixed)
RNA: GGACUCUAUCGAGUCCAACAACAACAACAGACCUCUCUACCAUCACCGCAGCAUACUGCUGCAGACCUCGCGCCCAGGACGACACACUUUGGACAGGACACACAGGACACAGG
DNA: B1 DNA
On to B9, for which, in the data set with Hfq [7], the binding result was “binds”.
